Data: US6759384 (AVENTIS PHARMACEUTICALS, dated 2004)

Key:
[1] = molecular target: T1, human factor Xa (Enzyme Research Laboratories, Inc.) (human, UniProt P00742 41-179; P00742 235-488, limits assumed); assay: chromogenic FXa inhibition
Protocol: TBS-P buffer (50 mM Tris-Cl, pH 7.8, 200 mM NaCl, 0.05% (w/v) PEG-8000, 0.02% (w/v) NaN_3) was used for this assay. The IC$50$ was determined by combining in appropriate wells of a Costar half-area microtiter plate 25 μl human factor Xa (Enzyme Research Laboratories, Inc.; South Bend Ind.) in TBS-P; 40 μl 10% (v/v) DMSO in TBS-P (uninhibited control) or various concentrations of a peptide to be tested diluted in 10% (v/v) DMSO in TBS-P; and substrate S-2765 (Nα-benzyloxycarbonyl-D-Arg-Gly-L-Arg-p-nitroanilide; Kabi Pharmacia, Inc.; Franklin Ohio) in TBS-P.
The assays were performed by pre-incubating the peptide inhibitor plus enzyme for 10 min, then the assay was initiated by adding substrate to obtain a final volume of 100 μl. The initial velocity of chromogenic substrate hydrolysis was measured by the change in absorbance at 405 nm using a Bio-tek Instruments kinetic plate reader (Ceres UV900HDi) at 25° C. during the linear portion of the time course (usually 1–5 min after addition of substrate). The concentration of inhibitor that caused a 50% decrease in the rate of substrate hydrolysis was predicted by linear regression after plotting the relative rates of hydrolysis (compared to the uninhibited control) versus the log of the peptide concentration. The enzyme concentration was 0.5 nM and substrate concentration was 140 μM.

[2] = molecular target: T1, human factor Xa (Enzyme Research …); assay: chromogenic FXa inhibition; remark: listed apart in the source
Outline: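 Human FXa (0.5 nM) preincubated 10 min with inhibitor in TBS-P (pH 7.8, 200 mM NaCl, PEG-8000), then S-2765 added (140 μM). Initial hydrolysis rate read at 405 nm, 25° C.; IC50 by linear regression of relative rate vs log concentration.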

[3] = molecular target: T1, human factor Xa (Enzyme Research …); assay: chromogenic enzyme inhibition, IC50 corrected for substrate
[4] = molecular target: human thrombin (Enzyme Research Laboratories, Inc.) (human, UniProt P00734 328-622); assay: as above

T1 sequence (P00742 41-179 limits assumed, chain 1 of 2): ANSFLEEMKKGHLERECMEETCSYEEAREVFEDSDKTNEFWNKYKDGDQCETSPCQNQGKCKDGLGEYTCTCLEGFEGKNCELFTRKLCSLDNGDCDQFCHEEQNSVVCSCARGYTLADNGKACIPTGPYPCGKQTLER
T1 sequence (P00742 235-488 limits assumed, chain 2 of 2): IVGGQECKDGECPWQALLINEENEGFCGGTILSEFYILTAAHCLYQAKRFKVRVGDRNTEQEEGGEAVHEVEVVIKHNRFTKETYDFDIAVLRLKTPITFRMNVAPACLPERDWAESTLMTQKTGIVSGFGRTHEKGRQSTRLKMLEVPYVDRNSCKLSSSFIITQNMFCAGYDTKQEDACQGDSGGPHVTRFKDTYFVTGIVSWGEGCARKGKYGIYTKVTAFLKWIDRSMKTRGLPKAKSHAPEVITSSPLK

XIRLP (N-(iBu) on Y1; C-term NH2) [(iBu)Y-I-R-L-P-NH2]
Ki [1]: 2600 nM
Ki [2]: < 100000 nM

XIRLP (N-term Ac; N-(iBu) on Y1; C-term NH2) [Ac-(iBu)Y-I-R-L-P-NH2]
Ki [2]: < 100000 nM
Ki [3]: 40 nM
Ki [4]: 25000 nM

YIRLP (D-Tyr at 1; C-term NH2, also called (D)-Tyr-Ile-Arg-Leu-Pro-NH2) [y-I-R-L-P-NH2]
Ki [2]: < 100000 nM
Ki [3]: 200 nM
